Among the data in PMC4192513 (2014) are Kd values, retold here.

Assay [1] has as its target T1, Snu17p (residues 1-113) (S. cerevisiae, UniProt P40565 1-113).
T1 chain: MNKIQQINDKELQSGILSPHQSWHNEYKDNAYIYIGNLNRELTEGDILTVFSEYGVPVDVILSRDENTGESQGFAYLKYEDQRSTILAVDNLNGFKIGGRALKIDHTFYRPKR
Kind of assay: ITC. A general note: In ITC the heat of successive injections is recorded.

Assay [2] has as its target T1, Snu17p (residues 1-113). Put plainly: ITC; first site (KD1).
The target in assay [3] is T1, Snu17p (residues 1-113). Put plainly: ITC; second site (KD2).

As a reminder, the Kd is the constant that tells how readily two partners part at equilibrium. A low value points to higher affinity. The molecule ENRFAIMPGSRWDGVHRSNGFE [Bud13p peptide (residues 221-242)] came in with a Kd in assay [1] of 253 nM.

For AIMPGSRWDGVHRS [Bud13p peptide (residues 225-238)], the equilibrium dissociation constant (Kd) in assay [1] is approximately 60000 nM.

B1: Bud13p (residues 201-266) (domain or fragment)
chain: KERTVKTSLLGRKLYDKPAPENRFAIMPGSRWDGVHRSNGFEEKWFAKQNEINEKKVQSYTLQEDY
Regarding B1, the Kd in assay [2] stood at 6.3 nM; in assay [3], 234 nM.
